In series [1] the target is T1, AmtB (EcAmtB) (Escherichia coli, UniProt P69681).
T1 construct: AmtB(His)6 from pET22b(+), expressed in E. coli C43, purified, reconstituted into liposomes; homotrimer; 1U7G for the simulations only
T1 sequence (P69681 23-428): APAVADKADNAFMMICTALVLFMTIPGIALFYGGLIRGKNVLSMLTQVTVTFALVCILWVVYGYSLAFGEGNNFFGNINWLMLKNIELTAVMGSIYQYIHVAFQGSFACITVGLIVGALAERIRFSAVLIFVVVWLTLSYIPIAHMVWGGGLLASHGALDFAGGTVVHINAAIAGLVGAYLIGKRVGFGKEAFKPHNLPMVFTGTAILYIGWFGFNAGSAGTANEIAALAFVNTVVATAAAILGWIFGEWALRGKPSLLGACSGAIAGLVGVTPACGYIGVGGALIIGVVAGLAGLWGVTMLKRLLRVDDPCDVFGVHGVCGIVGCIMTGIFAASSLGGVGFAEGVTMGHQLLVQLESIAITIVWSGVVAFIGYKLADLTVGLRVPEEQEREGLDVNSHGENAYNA
As to the kind of experiment: solid supported membrane electrophysiology (SSME), proteoliposomes. The conditions noted are these: read-out: Ammonium; transport; maximum transient current amplitude. The series is classed as biochemical. The source says:
(§1) solid supported membrane electrophysiology (SSME), proteoliposomes on AmtB (EcAmtB)

Substrate in series [2]: CN
The series is described as above. It is filed as biochemical, Escherichia coli. As to conditions: transport; maximum transient current amplitude.
Source text: as §1

Substrate in series [3]: N
As to the kind of experiment: purified protein. As to conditions: transport; maximum transient current amplitude.

Substitutions are numbered along the chain they refer to. In names and notes the source's numbering stands.

As for `N` [ammonium], the Km in series [1] was 0.8 ± 0.1 mM.

B1: AmtB (EcAmtB) (Escherichia coli K-12) (protein)
chain: T1 sequence (P69681 23-428)
notes: AmtB(His)6 from pET22b(+), expressed in E. coli C43, purified, reconstituted into liposomes; homotrimer; 1U7G for the simulations only
For B1, the Km in series [2] worked out at 49.86 ± 4.76 mM.

B2: AmtB (EcAmtB) (Escherichia coli K-12; H190D) (protein)
chain: T1 sequence (P69681 23-428) with H168D
notes: as for B1
With B2, the results for the Km in series [2] and in series [3] were 55.09 ± 12.67 mM and 14.02 ± 4.08 mM, respectively.

B3: AmtB (EcAmtB) (Escherichia coli K-12; H190E) (protein)
chain: T1 sequence (P69681 23-428) with H168E
notes: as for B1
For B3, the Km in series [2] is recorded as 86.00 ± 9.46 mM; in series [3], 12.87 ± 7.79 mM.

The values are drawn from PMC9040831 (mBio, 2022).
